Experimental data published in patent US20230002493A1 (ORIONIS BIOSCIENCES, published 2023).

What was measured:
[1] = target: T1, recombinant PD-L1 extracellular domain fused to the mouse IgG1 Fc domain (SinoBiologicals) (human; mouse, UniProt Q9NZQ7 19-238); test: BLI (Octet), PD-L1-mouse Fc on the sensor, VHH dilution series, as described above
T1 construct: extracellular domain; also called human PD-L1-mouse Fc; PD-L1-mouse Fc protein; not shown: mouse IgG1 Fc domain
Description: Affinities of resulting variants were measured using the bio-layer interferometry technology on an Octet Red 96 instrument (ForteBio). In brief, recombinant PD-L1 extracellular domain fused to the mouse IgG1 Fc domain (SinoBiologicals) was immobilized on anti-murine IgG quantitation (AMQ) biosensors (ForteBio). Loaded sensors were incubated with a serial dilution of PD-L1 VHH variant, association and dissociation monitored and kinetic parameters were calculated using the Octet Data Analysis software v10 (ForteBio).

[2] = target: T1, recombinant PD-L1 extracellular domain …; test: BLI as described above; reference not named

T1 sequence (Q9NZQ7 19-238): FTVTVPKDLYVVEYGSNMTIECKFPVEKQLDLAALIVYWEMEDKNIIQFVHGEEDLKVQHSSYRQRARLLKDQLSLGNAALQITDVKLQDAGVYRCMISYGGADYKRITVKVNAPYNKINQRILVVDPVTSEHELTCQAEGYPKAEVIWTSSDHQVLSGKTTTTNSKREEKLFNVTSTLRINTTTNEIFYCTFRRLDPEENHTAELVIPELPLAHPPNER

B1: SEQ ID NO: 72 (2LIG189 humanization variant with deamidation and oxidation risk sites removed) (VHH)
VHH: DVQLVESGGGLVQPGGSLRLSCAASGKIFSGNHMGWYRQAPGKQRELVGIITSGGITDYADAVKGRFTISRDNSKNTVYLQMNSLRPEDTAVYYCNVRDRTIWWGQGTLVTVSS
notes: also called 2LIG189 second wave variant
B1 gave a Kd [1] of 0.144 nM, a koff [1] of 7.71e-05 s⁻¹ and a kon [1] of 536000 M⁻¹ s⁻¹. For the same binder, the “fold increase in affinity” value [2] was 40 fold.
